Results on 41 sequences are retold here after the nanobody polyreactivity screen of Harvey et al. (2022).

A short description of this series: yeast display, Sf9 membrane polyspecificity reagent, FACS + sequencing; frameworks hold sequencing errors. In outline: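 A synthetic nanobody library was expressed on Saccharomyces cerevisiae BJ5465 by galactose induction for 36–48 hours. The library was stained for 1 hour at 4 °C with 10% biotinylated, detergent-solubilized Sf9 membrane reagent and enriched with streptavidin microbeads before FACS. Low and high (top ~1%) gates were set on anti-HA fluorescence for expression and streptavidin fluorescence for reagent binding, and each polyreactivity label reflects the gate of origin.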
In the case of “QLQLVESGGGLVQAGGSLRLSCAATGRIFRFYALGWYRQATGKERELVADISRRGGSTYFADSVKGRFTISRDNAKNTVYVQMTSLKPEDTAVYYCNARWYRTGSTYHEDYWGQGTQVTVSS”, the “polyreactivity (PSR sort gate)” value is “high polyreactivity”.
Under “QLQLVESGGGLVQAGGSLRLSCSASGGTFYRNAMGWSRQAPGKESELVPSISRTGGSTYYADSVKGRFTISRDNAKNTVYLQMNILKPEDTAVYYCANKQPRYSYFDNDYWGQGTQVTVSS” stands “high polyreactivity”; under “QLQLVESGGGLVQAGGSLSLSCAASGRIFYVYAMGWYRQAPGKEREFVAAITRRSGSTYYADSVKGRFTISRDNAKNTVYFQMNSLKPEDTSVYYCNARLKYAIPQVPPYDYWGQGTQVTVSS”, “high polyreactivity”; under “QLQLVESGGGLVQAGGSRRLSCAASGSTFGRYAMGWYRQAPGKERELVAAISRRGTSTYYADSVKGRFTISRDNAKNTVYIQMNSLKPEDTAVYYSNAVTSSFYNRDSDYWGQGTQVTVSS”, “high polyreactivity”.
Under “QLQLVESGGGLVQARGSLRLSCASSGSPFEGYAMGRSRQAPGKERELVARITIGGSTNYADSVKGRFTISRDNAKNSVYLQMNSLKPDDTAVYYCAADYRWGYYFTFYYWGQGTQVTVSY” stands “high polyreactivity”; under “QLQLVESGGWLVQAGGSLRLSCAASGGTIVTYAMGWYRQAPGKERELVAAISRRGGSTFSADSVKGRFTISRDNAKNTVYLQMNSLKPADTAVYYCAALSNHGYYIRMDYWGHGTQVTVSS”, “high polyreactivity”; under “QLQLVESGRGLVQAGGSLRLSCAASGITFPGYAMGWYRQAPGKERELVAAIDWSGDGTYYADSVKGRFTISRENAKNTVYFQMNSLKPEDTAVFYCAKDNYPNHSTVLAVIYDNWGQGTQVTVSS”, “low polyreactivity”.
To “QLQLVESGRGLVQAGGSLRLSCAASGRTFVYYPMGSYRQAPGKERELVASISSVGTTKYADSVKGRFTISRDNAKNTVYLQMNCLKPEDTAVYYCAAVPLSRNIFDSWGQGTQVSVSS” belongs “low polyreactivity”; to “QLQLVESGVGLVQAGGSLRLSCAPSGFTSTYYAMAWYSQAPGKERELVAAITSSGTRTYYADSVKGRFTISRENAKNTVYLQMNSLKPEDTAVYYCNAALRKGMYYWGQGTQVTVSS”, “high polyreactivity”.
As to “QLRLVESGGGLVQAGGSLRLSCAAYGFIFRNNAMGWYRQAPGKERELVAVISFSGGSTYYADSVKGRFTISRDNAKHTVYLQMNSLKPEDTAVYYCAADDYQVQYDYWGQGTQVTVSS”, the “polyreactivity (PSR sort gate)” value is “low polyreactivity”.
Under “QQQLVESGGGVVQAGGSLRLSCAASGSTFSGYAMGWYIPAPGKERELVAAIRKSGGSKYYADSVKGRFTISRDNAKNTVYLQMNSLKPEDTAVYYCNARRDLQYSQYKRYGYWGQGTQVNVSS” stands “low polyreactivity”.
To “QVEHVDSGRGLVQAGGSLRLSCAASGSIIRSYAMGWYRQAPGKERELVAAISWRGGRTYYADSLKGRFTISRDNAKNTVYLQMNSLKPEDTAVYFCAARKRAQQGTRDHDYWGQGTQLTVSS” belongs “high polyreactivity”; to “QVELVESAAGLVQAGASLRLSCAASGTTIKSYVMGWYRQPPGKETELVAAISSGDSTYYADSVKGRFTISRDNAKNTVYLQMNSLNPEDTAVYYCAADPCYSVEPWEDDYWGQGSQVTVSS”, “low polyreactivity”; to “QVELVESGGGLVQAGGSLRLSCAASGRTFTPYAMGWYRQAPGKEREFVAAISIVGRTKYADSVKGRFTISRDNAKNTVYLQMNSLKPEDTAVYYCNAQDSRDRKFYWGYTRGHWGQGTQVTVSS”, “low polyreactivity”.
To “QVELVESGGGLVQAGGSLRLSCAASGSIFTVYAMGWYRQAPGKERELVAAISSSGGRTYYADSVKGRFTISRDNAKNTVYLQMNSLKPEDTAVYYCNTGPGQSFRYNYWGQGTQVTVSS” belongs “high polyreactivity”; to “QVELVESGGGLVQAGGSLRLSCAASGSTFSINAMGWYRQAPGKERELVADITWRGVRTYYADSVKGRFTISRDNAKNTVYLQMNSLKPEDTAVYYCAADVVVDGHPGFDYWGQGTQVTVSS”, “high polyreactivity”; to “QVELVESGGGLVQAGGSLRLSCAASGSTFVDNDMGWYRQAPGKERELVAAAITARGGSTYYADSVTGRFTISRDNAKNTDYIQMNSLKPEDTAVYYCAAGRPGELDYWGQGTQVTVSS”, “low polyreactivity”.
As for “QVELVESGGGLVQAGVSLRLSCAASGIISRGYAMGWYRQAPGKERELVAAISRSGGTTYYADSVKGRFTISRDNAKTTVYLQMNSLKPEDTAVYYCAARSKYFGYWGQGTQVTVSS”, the “polyreactivity (PSR sort gate)” value is “high polyreactivity”.
To “QVELVESGGGLVQPGGSLRLSCAASGRTFYLNAMGWYRQAPGKEREFVARITWSGGSTYYADSVKGRFTISRDNAKNTVYLQMNSLKPEDTAVYYCAARVRLYRGFTKYDYWGQGTQVTVSS” belongs “high polyreactivity”; to “QVHHEESGGGLFQAGGRLRLSCAASGYIFYDYSMGWYRQAPGKERELVAAISSGGSTNYADSVKGRFTISRDNAKNTVYLQMNSLIPEDTAVYYCASDDRSYATWKRDYDYWGQGTHVTVSS”, “low polyreactivity”.
To “QVHHVESAGGLVQAGASLRLSSAASGSTIYRYAMGWYRQTPGKERELVARIDWSDGSTNYADSVKGRFTISRDNAKNTVYLQMNSLKPEDTGVYYCASDTYYDTYDGEYEYWGQGTQVTVSS” belongs “low polyreactivity”; to “QVHHVESGGGLVQAGGCLRLSCAASGFIVRENAMGWYRQAPGKERELVAAISKSGGRTYYADSVKGRFTISRDNAKNTVYLQMNSLKPEDTAVFYCAAYPSYTIHPAGDYWGQGTQVTVSS”, “high polyreactivity”.
Under “QVHHVESGGGLVQAGGILRLSCAASGFTIFKYAMGWSRQKPGKERELVATISIDGITNYADSVKGRFTISRDNAKNTVYLQMNILKPEDTAVYYCHALSLYQQLGYWGQGTQVTVSS” stands “low polyreactivity”; under “QVHHVESGGGLVQAGGSLRLSCAASGGTFYYNAMGWYRQAPGKERELVAAIDGSGGTTYYADSVKGRFTISRDNAKNTVYLQMNSLKPEDTAVYYCAAAGSPSVYGYGYWGQGTQVTVSS”, “low polyreactivity”; under “QVHHVESGGGLVQAGGSLRLSCAASGSTIDEYAMGWYRQAPGKERELVAAIDWSTGSTYYADSVKGRFTISRDNAKNTVYLQMNSLKPEDTAVYYCAADSGYGPYYYWGQGTQVTVSS”, “high polyreactivity”.
Consider “QVHHVESGGVLVKAGGSLRLSCAASGRTIYAYAMGWYRQAPGQESELVAAITSGASTYYADSVKGRFTISRDNAKNTVYLQMNSLKPEDTGVYYCAKRVRYYKPGYDYWGLGTQVTVSS”, for which the “polyreactivity (PSR sort gate)” value is given as “low polyreactivity”.
Under “QVHIVESGGGLVQAAGSLRLSCAASGSTLAIYDMGWYRQAPGKERELVAAISGGGSTYADSVKGRFTISPDNAKNTVYLHMNSLKTEDTAVYYFNADGWGDLFWSNFRFDYWVQGTQVTVSS” stands “low polyreactivity”.
To “QVHIVESGGGLVQAGGRLRLSCADSGTTFSYYTMGWYRQSPGKERELVAAISTSGGSTYYADSVKGRFTISRDNAKNTVYLQMNSLKPEDTAVYYCDARYGRYYKYNYWGQGTQVTVSS” belongs “high polyreactivity”; to “QVHIVESGGGLVQAGGSLRLSCAASGLIFYLYTRGWSRQATGKERELVAAISRSGTITYYADSVKGRFTISRDNAKNTVYLQMNSLKPEDTAVYYCAATYTYIIGTRYDYWGQGTQVTVSS”, “high polyreactivity”; to “QVHLEESGAGLVQAGGSLRISCAASGFIFDYYAMGWYRQAPGKERELVATITSRGGSTYYADSVKGRFTISRDNAKNTVSLQMNRLKPDYNGVYYCAAVSHPGRKYYYWGQGTQVTVSS”, “high polyreactivity”.
To “QVHLEESGGGLVQAGGSLRLSCAASGFTFGPYAMGWYRQAPGKERELDATIRSGDSTNYADSVKGRFTISRDNAKNTVYLQMNSLKPEDTAVYYCARDARASARRKRYDYWGQGTQVTVSS” belongs “low polyreactivity”; to “QVHLEESGGGLVQAGRSLRLTCAASGRTFLWYAMGSYRQAPGKETDLVAAIRRSGGGTYYADSVKGRFTISRDNAKNSVYLQMNRLKPEDSGFFYCNSDYRGYQRGVISDGFYYWGLGTQVTVSS”, “low polyreactivity”; to “QVHLGQSGGGLVQAGGSLRLSCAASAITFRGNAMGWYRQAPGKERDLVAVITKGGVSTYYADSVKGRFTISRDNAKNTVYLQMNSLKPEVTAVYYCAKYWSWRSVKDYYWGLGTQVTVSS”, “high polyreactivity”.
For the sequence “QVHLLESGGGLVQAGGSLRLSCAASGRTFIRNAMGWYRQAPGKERELVASIRWSGGSTYYADSVKGRFTISRDNAKNTVYLQMNSLKPEDTAVYYCARRKQSFGSWPPSEPVADDYWGQGTQVTVSS”, the “polyreactivity (PSR sort gate)” value is recorded as “low polyreactivity”.
For the sequence “QVHLQESGAGLVQVGGSQRLSCAASGNIFYNYAMGWSRHAQGKEREFDATINHGTSINYADSVKGRFTISRDNAKNNVYLQMNCLKPEDTAVYYCAADLSWTDNLFYWGQGTQVSVSS”, the “polyreactivity (PSR sort gate)” value is listed as “low polyreactivity”.
Regarding “QVHLQESGGGLEQAGGSLSPSCAASGSISNGVPMGWYRQAPGEERELVATTVLGATTNYADSVKGRFTISRGNAKNPVYLQMNSLKPEETAVYYCAAPLRYDKGFSYWGQGTQVTVSS”, the “polyreactivity (PSR sort gate)” value was “low polyreactivity”.
Under “QVHLQESGGLVQAGGLRLSCAASGSVSYQEAMGWYPQAPGKERELVATISFGANTNYADSVKGRFTISRDNAKNTVYLQRNCLKPEDTAVYYCAAESLFDDYYGYWGQGTQVTVSS” stands “low polyreactivity”.
To “QVHLVDSGGGIVQAGGSLRLSCAATGRISGVYAMVWYRQAPGKERELVAAISWSGGRTYYADSVKGRFTISRDNAKNTVYLQMNSLKPEDTAVYYCNADTGFRSYRRDYWGQGTQVTVSS” belongs “low polyreactivity”.
On to “QVHLVDSGGGLVQAGGILRLSCSDYGSTFALYAMGWYRQSPGKVSELVAPITTSGGNTYYADSVKGRFTISRDNAKNTVYLQMNSLKPEDTAVYYCAADPWWSYTSYLRYYNLEMNYWGQGTQVTVSS”, for which the “polyreactivity (PSR sort gate)” value is given as “high polyreactivity”.
With “QVHLVDSGGGLVQAGGSLRLSCAASGFIFWSYAMGWYRQAPGKERELVAAISFRGGSTFYADSVKGRFTISRDNAKNTVYLQMNSLKPEDTAVYYCAVGVYPSYRGPTFSTRRDYWGQGTQVTVSS”, the “polyreactivity (PSR sort gate)” value was “low polyreactivity”.
Take “QVHLVDSGGGLVQAGGSLRLSCAASGFTFDYYAMGWYRQAPGKERELVAAITSDGSTYYADSVKGRFTISRDNAKNTVYLQMNSLKPEDTAVYYCAADGISLYATAYDYWGQGTQVTVSS”: the “polyreactivity (PSR sort gate)” value was “low polyreactivity”.
